# Measured values: patent publication US7294701B2, “Antibody fragment capable of modulating multidrug resistance and compositions and kits and methods using same” (Technion Research & Development Foundation Ltd., priority 2003, dated 2007)
# Where “and” joins values, the source holds several entries; their conditions need not be identical. Equal values may be shown once. Entries after “also recorded” stand apart in the source; their conditions may differ. Read-outs that look alike come from different tables or passages of the source.
# Assays:
# [1] = system: drug-sensitive carcinoma cells KB3-1; assay: immunofluorescence flow-cytometer analysis of cell binding; design: species or system human; details: KB3-1, A2 scFv 50 μg/ml, FIG. 2c
# Procedure: (§1) In another series of experiments, the reactivity and specificity of A2 scFv to Pgp, expressed on the surface of MDR cells, was evaluated. […] The MDR cell lines and the drug-sensitive cell lines used in these experiments are described in Table 2 below.
# (§2) Cells growing on six well tissue culture plates were washed twice followed by incubation with soluble purified A2 scFv (50 μg/ml) for 90 minutes on ice. Detection was with anti-Myc (30 μg/ml) and FITC-labeled anti-mouse IgG (1:1000, Jackson). Detection of fluorescent cells was performed on a FACScalibur (Becton Dickinson).
# [2] = system: drug-sensitive ovarian carcinoma cells 2780; assay: as above; design: species or system human; details: 2780, A2 scFv 50 μg/ml, FIG. 2a
# Procedure: as §1, §2
# [3] = molecular target: T1, Pgp drug-efflux activity in EMT^R1 cells (Cricetulus griseus, UniProt P21448); assay: calcein-AM chromophore efflux assay; format: cell-based, rodent (CHO); details: EMT^R1, fluorometer, FIG. 4a
# T1 construct: a rodent (CHO) MDR cell line EMT^R1; endogenous in cells; host or cells: EMT^R1 (CHO, parental line A8)
# [4] = molecular target: T2, Pgp on MDR ovarian carcinoma cells 2780^ADR (Homo sapiens, UniProt P08183); assay: immunofluorescence flow-cytometer analysis of cell binding; details: A2 scFv 50 μg/ml, FIG. 2b
# T2 construct: MDR and Pgp-overexpressing ovarian carcinoma cells 2780^ADR; endogenous in cells; host or cells: 2780^ADR (drug-selected human ovarian carcinoma)
# T2 sequence (P08183 whole entry): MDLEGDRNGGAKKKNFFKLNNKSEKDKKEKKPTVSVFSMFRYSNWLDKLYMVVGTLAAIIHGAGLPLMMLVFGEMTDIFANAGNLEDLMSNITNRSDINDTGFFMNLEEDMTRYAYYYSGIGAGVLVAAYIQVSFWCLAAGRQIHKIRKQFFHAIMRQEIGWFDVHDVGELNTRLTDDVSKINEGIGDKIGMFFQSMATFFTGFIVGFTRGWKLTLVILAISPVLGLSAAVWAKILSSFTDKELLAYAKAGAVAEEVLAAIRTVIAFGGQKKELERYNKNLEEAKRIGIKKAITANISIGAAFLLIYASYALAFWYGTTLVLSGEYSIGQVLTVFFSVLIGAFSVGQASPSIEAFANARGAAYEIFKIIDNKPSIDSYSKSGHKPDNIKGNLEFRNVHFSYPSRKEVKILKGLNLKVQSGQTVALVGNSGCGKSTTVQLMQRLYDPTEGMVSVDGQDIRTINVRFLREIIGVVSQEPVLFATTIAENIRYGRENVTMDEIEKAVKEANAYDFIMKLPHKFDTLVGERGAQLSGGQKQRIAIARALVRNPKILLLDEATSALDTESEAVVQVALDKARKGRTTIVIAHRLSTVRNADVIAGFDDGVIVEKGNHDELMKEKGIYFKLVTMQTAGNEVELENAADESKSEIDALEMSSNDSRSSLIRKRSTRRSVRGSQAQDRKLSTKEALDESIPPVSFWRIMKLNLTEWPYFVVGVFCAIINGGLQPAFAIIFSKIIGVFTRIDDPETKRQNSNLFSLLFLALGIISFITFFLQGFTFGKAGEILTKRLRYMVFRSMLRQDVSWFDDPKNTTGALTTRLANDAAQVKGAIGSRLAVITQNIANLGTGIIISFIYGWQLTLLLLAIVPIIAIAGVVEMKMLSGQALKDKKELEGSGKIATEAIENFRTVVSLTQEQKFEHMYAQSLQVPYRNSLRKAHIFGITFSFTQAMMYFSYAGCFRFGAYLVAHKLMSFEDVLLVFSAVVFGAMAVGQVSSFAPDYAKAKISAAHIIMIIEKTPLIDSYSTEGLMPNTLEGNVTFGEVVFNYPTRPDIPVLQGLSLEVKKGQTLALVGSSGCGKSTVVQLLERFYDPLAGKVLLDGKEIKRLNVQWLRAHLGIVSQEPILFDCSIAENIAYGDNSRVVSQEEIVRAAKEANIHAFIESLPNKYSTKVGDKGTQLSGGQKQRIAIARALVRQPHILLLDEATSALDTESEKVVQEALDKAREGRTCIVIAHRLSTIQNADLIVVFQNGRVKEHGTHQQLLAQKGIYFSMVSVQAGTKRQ
# Procedure: as §1, §2
# [5] = molecular target: T3, Pgp on MDR epidermoid carcinoma cells KBV-1 (Homo sapiens, UniProt P08183); assay: as above; details: KBV-1, A2 scFv 50 μg/ml, FIG. 2d
# T3 construct: MDR and Pgp-overexpressing human carcinoma cells KBV-1; endogenous in cells; host or cells: KBV-1 (KB-V1; drug-selected human epidermoid carcinoma, derived from KB3-1)
# T3 sequence (P08183 whole entry): as above
# Procedure: as §1, §2
# [6] = system: drug-sensitive cells 2780; assay: immuno-histochemical staining; format: binding, human; details: 2780, A2 scFv 0.2 mg/ml, FIG. 2f
# Procedure: (§3) Drug sensitive cells and MDR cells were grown to 50% confluence on glass slides, pre-coated with 4% gelatin in PBS, fixed with 2% formaldehyde in PBS, blocked with 1% BSA in PBS at room temperature, then followed by 90 min incubation with A2 scFv (0.2 mg/ml) in PBS containing 1% BSA (room temperature). The slides were then covered with HRP-labeled anti-Myc-antibody (1:500, in PBS containing 1% BSA) for 1 hr, washes with water, then covered with peroxidase substrate, (AEC) for 2-3 min. Slides were then washed with water and counter staining was performed with hematoxylin.
# [7] = system: drug-sensitive cells KB3-1; assay: immuno-histochemical staining; format: binding, human; details: drug-sensitive KB3-1, A2 scFv 0.2 mg/ml, FIG. 2h
# Procedure: as §3
# [8] = system: KB3-1 cells; assay: calcein-AM chromophore efflux assay, drug-sensitive cells; format: cell-based, human; details: KB3-1, fluorometer, FIG. 4d
# [9] = molecular target: T4, Pgp-derived peptide (SEQ ID NO:1) (Homo sapiens, UniProt P08183); assay: competition binding radio-immunoassay with [125I]-labeled A2 scFv; details: competition with [125I]-labeled A2 scFv, interpolated, FIG. 1d; read-out: concentration of cold competitor for 50% binding inhibition (affinity constant)
# T4 construct: made in house; host or cells: chemical synthesis
# Procedure: In a competition binding radio-immunoassay the purified A2 scFv (100 μg) was first labeled with [^125I] using the Bolton-Hunter reagent. The [^125I]-labeled A2 scFv antibody was added as a tracer (3-5×10^5 cpm/well) to a flexible microtiter plate, which had been pre-coated with BSA-biotin and the target peptide (SEQ ID NO:1), as described above. A non-labeled (i.e., cold) A2 scFv was then added, as a competitor, to the pre-coated plates at increasing concentrations. Plates were incubated for 1 hr at room temperature, then washed and analyzed by gamma counter.
# [10] = molecular target: streptavidin (Streptomyces avidinii, UniProt P22629); assay: ELISA binding specificity, streptavidin; details: FIG. 1b
# Procedure: (§4) The binding specificity of the purified A2 scFv antibody was determined via ELISA. A biotinylated target peptide having the amino acid sequence of SEQ ID NO:1, or a non-target MRP1 control peptide (provided at 10 μg in 100 μl) were each immobilized onto a flexible microtiter plate using BSA-biotin-streptavidin. A purified A2 scFv was then added, at different concentrations, to the peptide-coated plate and was detected with an anti Myc tag-HRP conjugate antibody.
# [11] = system: 2780 cells; assay: calcein-AM chromophore efflux assay, drug-sensitive cells; format: cell-based, human; details: 2780, fluorometer, FIG. 4c
# [12] = system: non-target MRP1 control peptide; assay: ELISA binding specificity, non-target control peptide; details: FIG. 1b
# Procedure: as §4
# [13] = molecular target: T5, Pgp drug-efflux activity in 2780^ADR cells (Homo sapiens, UniProt P08183)
# T5 sequence (P08183 whole entry): as above
# [14] = system: 2780^ADR cells; assay: viability of doxorubicin-exposed cells by [3H]-leucine incorporation; format: cell-based, human; details: A2 scFv 0.2 mg/ml before 5-10 μM doxorubicin
# Procedure: Cells were pre-incubated with A2 scFv at a concentration of 0.2 mg/ml, then exposed to 5-10 μM of doxirubicin and then analyzed for [^3H]Leucine content.
# [15] = molecular target: T2, Pgp on MDR ovarian carcinoma cells 2780^ADR; assay: immuno-histochemical staining; format: binding; details: A2 scFv 0.2 mg/ml, FIG. 2e
# Procedure: as §3
# [16] = molecular target: T6, Pgp on MDR carcinoma cells KBV-1 (Homo sapiens, UniProt P08183); assay: immuno-histochemical staining; format: binding; details: MDR KBV-1, A2 scFv 0.2 mg/ml, FIG. 2g
# T6 construct: MDR and Pgp-overexpressing human carcinoma cells KBV-1; endogenous in cells; host or cells: KBV-1 (KB-V1; drug-selected human epidermoid carcinoma, derived from KB3-1)
# T6 sequence (P08183 whole entry): as above
# Procedure: as §3
# [17] = molecular target: T7, biotinylated Pgp-derived peptide (SEQ ID NO:1) (Homo sapiens, UniProt P08183); assay: saturation ELISA; details: interpolated, FIG. 1c
# T7 construct: made in house; host or cells: chemical synthesis
# From the text: The binding properties of A2 scFv were further characterized using a saturation ELISA. In this experiment, a biotinylated Pgp-derived peptide (SEQ ID NO:1) was bound to plates precoated with BSA-biotin and exposed to increasing amounts of A2 scFv.
# [18] = system: A8 cells; assay: calcein-AM chromophore efflux assay, drug-sensitive cells; format: cell-based, rodent (CHO); details: A8, fluorometer, FIG. 4e
# [19] = molecular target: T5, Pgp drug-efflux activity in 2780^ADR cells; assay: calcein-AM chromophore efflux assay; details: antibody given before calcein, FIGS. 3c, 3e
molecule,measurement,setting,value
"A2 scFv: novel anti-Pgp single-chain Fv, about 30 kDa, encoded by SEQ ID NO:2, directed to first extracellular loop peptide SEQ ID NO:1 (protein, A2 single chain Fv coding sequence) QVQLQQSGPDLVKPGASVKISCKASGYSFTGYYMHWVKQSHGKSLEWIGRANPNNGGTSYNQKFKGKAILTVDKSSSTAYMELRSLTSEDSAVYYCARWDGAYWGQGTLVTVSSGGGGSGGGGSGGGGSDVVMTQTPLSLPVSLGDQASISCRSSQSIVHSNGNTYLEWYLQKPGQSPKLLIYKVSNRFSGVPDRFSGSGSGTDFTLKISRVEAEDLGVYYCFQGSHVPFTFGSGTKLELK",reactivity with cells (flow cytometer),[1],no reactivity; also recorded: no effect on fluorescent intensity
same,reactivity with cells (flow cytometer),[2],no reactivity; also recorded: no effect on fluorescent intensity
same,effect on calcein uptake,[3],substantial increases in calcein accumulation; also recorded: substantially higher levels of fluorescence
same,increase in fluorescent intensity,[4],10 fold
same,reactivity with cells (flow cytometer),[4],strong reactivity
same,reactivity with cells (flow cytometer),[5],strong reactivity; also recorded: substantial increase in fluorescent intensity
same,immuno-histochemical staining of cells,[6],did not stain; also recorded: no antibody-cell reaction
same,immuno-histochemical staining of cells,[7],did not stain; also recorded: no antibody-cell reaction
same,effect on calcein uptake in drug-sensitive cells,[8],did not affect the level of calcein accumulation; also recorded: no effect
same,Kd,[9],130 nM and ~130 nM
same,binding to streptavidin,[10],did not react
same,effect on calcein uptake in drug-sensitive cells,[11],did not affect the level of calcein accumulation; also recorded: no effect
same,binding to biotinylated non-target peptide,[12],did not react
same,IC50,[13],2600 nM
same,concentration of maximal inhibitory activity,[13],100 µg/mL
same,viability of cells exposed to doxorubicin,[14],effectively reduced the viability of cells; also recorded: substantial loss of viability of cells
same,immuno-histochemical staining of cells,[15],intense in situ staining; also recorded: positive antibody-cell reaction
same,immuno-histochemical staining of cells,[16],intense in situ staining; also recorded: positive antibody-cell reaction
same,Kd,"[17]; listed as A2, read-out: concentration required for 50% of maximal binding (affinity constant)",~150 nM
same,Kd,[17]; read-out: concentration required for 50% of maximal binding (affinity constant),150 nM and ~150 nM
same,effect on calcein uptake in drug-sensitive cells,[18],did not affect the level of calcein accumulation; also recorded: no effect
same,effect on calcein uptake / drug efflux activity,[19],substantial increase in fluorescence intensity; also recorded: substantially inhibited drug efflux activity; also recorded: positive dose-response effect
